Laboratory results taken from the supplement of paper PMC10065799, “High-throughput profiling of sequence recognition by tyrosine kinases and SH2 domains using bacterial peptide display” (eLife, 2023).

system: AncSZ; assay: phosphorylation enrichment, bacterial display (enrichment ratio); higher = better substrate or ligand; peptides without Tyr show the background
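Note: 11-residue human phosphosite peptides and single-mutation variants displayed on the E. coli surface, counted by deep sequencing, each peptide's frequency after selection divided by its frequency in the unselected input library; frequency after pTyr selection over input frequency; kinase dosed for 20-30% of maximal phosphorylation in three min.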

Sequence | phosphorylation enrichment
EQRRAYLEGTC [HLA-C_Y183_L180R] | 0.832
DSDTDYGSGFP [RNASEH2A_Y206_L202S_YF] | 1.1
LVRPPYSFLAL [FOXI1_Y126_S129L_YF] | 0.683
MMVGAYSSLEG [ECPAS_Y470_T472S] | 0.631
KRAAIYNPVIF [RHO_Y301_S297R_YF] | 0.725
LHAAAYRNALA [UQCRC2_Y182] | 0.686
AALLNYKAGRD [GRIN2A_Y737_V734L] | 0.623
SHPSSYTTHPQ [NIPBL_Y195] | 0.412
LTGIAYSLPHW [SLC22A14_Y291] | 1.61
SLFNGYVFSGM [NEIL3_Y71_V76M_YF] | 0.954
LNEVGYDDIGG [VCP_Y203] | 1.42
PEADKYRLPFA [FGG_Y300_T303P_YF] | 0.988
HSDYQYGQRSQ [PKP2_Y168_S169G] | 0.618
QMQAAYQKVVA [HBD_Y131] | 0.504
VDSAHYQLLET [DTX3L_Y385_K386Q] | 0.946
LRAGVYREKDQ [DNM2_Y626_P627R] | 0.882
LRVHSYKSMQP [DRC7_Y516] | 0.797
RQEEEYKRFSE [SFSWAP_Y133_L136F] | 1.41
RNYDTYTAGLS [RHBDD1_Y264] | 0.955
TVLEPYTDPYY [ZC3H18_Y367_A368T] | 1.2
FGFPGYQCKHF [TIMP3_Y177_S179C_YF] | 0.695
CTLLPYFSARV [DGKE_Y269_YF] | 0.987
VHLFAYDWISI [BEST1_Y227_G222V_YF] | 1.27
KELAKYFKLHH [AK7_Y390_N389K_YF] | 0.596
IGRHAYGDQYR [IDH1_Y135] | 0.56
GLAELYEYKKK [CKAP5_Y1854] | 0.671
NPQKSYFICLF [WAS_Y83_R86C_YF] | 1.1
PTTKTYFPHFG [HBA1_Y43_D48G] | 0.658
AHAGEYGAVAL [HBA1_Y25_E28V] | 0.598

molecular target: EPHB1 (UniProt P54762); assay: as above
Sequence (P54762 whole entry, looked up): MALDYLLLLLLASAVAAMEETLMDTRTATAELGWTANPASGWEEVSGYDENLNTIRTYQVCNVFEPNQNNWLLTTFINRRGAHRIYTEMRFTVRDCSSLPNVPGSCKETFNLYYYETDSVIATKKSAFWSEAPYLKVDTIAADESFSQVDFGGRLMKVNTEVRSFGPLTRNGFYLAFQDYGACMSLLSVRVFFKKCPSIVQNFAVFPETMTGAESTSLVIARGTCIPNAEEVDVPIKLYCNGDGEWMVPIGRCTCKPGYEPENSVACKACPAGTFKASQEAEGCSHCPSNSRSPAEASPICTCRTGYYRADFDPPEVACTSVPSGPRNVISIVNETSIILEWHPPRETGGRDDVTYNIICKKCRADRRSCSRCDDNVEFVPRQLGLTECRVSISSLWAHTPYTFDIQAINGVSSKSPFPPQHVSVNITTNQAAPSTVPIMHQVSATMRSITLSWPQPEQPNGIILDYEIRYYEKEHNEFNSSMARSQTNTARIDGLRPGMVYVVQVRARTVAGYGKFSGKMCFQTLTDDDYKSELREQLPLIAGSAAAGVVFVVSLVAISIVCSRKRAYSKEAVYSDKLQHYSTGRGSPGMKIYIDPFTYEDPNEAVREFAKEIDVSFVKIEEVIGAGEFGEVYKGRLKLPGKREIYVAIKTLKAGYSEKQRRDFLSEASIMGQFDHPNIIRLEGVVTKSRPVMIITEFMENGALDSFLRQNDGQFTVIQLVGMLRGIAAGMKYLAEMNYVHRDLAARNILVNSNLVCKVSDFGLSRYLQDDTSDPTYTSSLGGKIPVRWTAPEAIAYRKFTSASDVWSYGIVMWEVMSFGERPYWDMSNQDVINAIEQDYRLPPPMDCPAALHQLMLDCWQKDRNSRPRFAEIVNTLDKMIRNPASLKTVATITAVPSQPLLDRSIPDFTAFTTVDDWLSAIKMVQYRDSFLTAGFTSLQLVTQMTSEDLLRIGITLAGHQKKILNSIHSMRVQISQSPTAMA

Sequence | phosphorylation enrichment
EQRRAYLEGTC [HLA-C_Y183_L180R] | 0.578
DSDTDYGSGFP [RNASEH2A_Y206_L202S_YF] | 0.545
LVRPPYSFLAL [FOXI1_Y126_S129L_YF] | 0.584
MMVGAYSSLEG [ECPAS_Y470_T472S] | 0.469
KRAAIYNPVIF [RHO_Y301_S297R_YF] | 0.432
LHAAAYRNALA [UQCRC2_Y182] | 0.362
AALLNYKAGRD [GRIN2A_Y737_V734L] | 0.409
SHPSSYTTHPQ [NIPBL_Y195] | 0.362
LTGIAYSLPHW [SLC22A14_Y291] | 0.969
SLFNGYVFSGM [NEIL3_Y71_V76M_YF] | 0.532
LNEVGYDDIGG [VCP_Y203] | 1.4
PEADKYRLPFA [FGG_Y300_T303P_YF] | 0.61
HSDYQYGQRSQ [PKP2_Y168_S169G] | 0.449
QMQAAYQKVVA [HBD_Y131] | 0.373
VDSAHYQLLET [DTX3L_Y385_K386Q] | 0.813
LRAGVYREKDQ [DNM2_Y626_P627R] | 0.392
LRVHSYKSMQP [DRC7_Y516] | 0.526
RQEEEYKRFSE [SFSWAP_Y133_L136F] | 0.779
RNYDTYTAGLS [RHBDD1_Y264] | 7.39
TVLEPYTDPYY [ZC3H18_Y367_A368T] | 0.611
FGFPGYQCKHF [TIMP3_Y177_S179C_YF] | 0.337
CTLLPYFSARV [DGKE_Y269_YF] | 0.613
VHLFAYDWISI [BEST1_Y227_G222V_YF] | 1.06
KELAKYFKLHH [AK7_Y390_N389K_YF] | 0.394
IGRHAYGDQYR [IDH1_Y135] | 0.434
GLAELYEYKKK [CKAP5_Y1854] | 0.479
NPQKSYFICLF [WAS_Y83_R86C_YF] | 0.525
PTTKTYFPHFG [HBA1_Y43_D48G] | 0.543
AHAGEYGAVAL [HBA1_Y25_E28V] | 0.346

molecular target: EPHB2 (UniProt P29323); assay: as above
Sequence (P29323 whole entry, looked up): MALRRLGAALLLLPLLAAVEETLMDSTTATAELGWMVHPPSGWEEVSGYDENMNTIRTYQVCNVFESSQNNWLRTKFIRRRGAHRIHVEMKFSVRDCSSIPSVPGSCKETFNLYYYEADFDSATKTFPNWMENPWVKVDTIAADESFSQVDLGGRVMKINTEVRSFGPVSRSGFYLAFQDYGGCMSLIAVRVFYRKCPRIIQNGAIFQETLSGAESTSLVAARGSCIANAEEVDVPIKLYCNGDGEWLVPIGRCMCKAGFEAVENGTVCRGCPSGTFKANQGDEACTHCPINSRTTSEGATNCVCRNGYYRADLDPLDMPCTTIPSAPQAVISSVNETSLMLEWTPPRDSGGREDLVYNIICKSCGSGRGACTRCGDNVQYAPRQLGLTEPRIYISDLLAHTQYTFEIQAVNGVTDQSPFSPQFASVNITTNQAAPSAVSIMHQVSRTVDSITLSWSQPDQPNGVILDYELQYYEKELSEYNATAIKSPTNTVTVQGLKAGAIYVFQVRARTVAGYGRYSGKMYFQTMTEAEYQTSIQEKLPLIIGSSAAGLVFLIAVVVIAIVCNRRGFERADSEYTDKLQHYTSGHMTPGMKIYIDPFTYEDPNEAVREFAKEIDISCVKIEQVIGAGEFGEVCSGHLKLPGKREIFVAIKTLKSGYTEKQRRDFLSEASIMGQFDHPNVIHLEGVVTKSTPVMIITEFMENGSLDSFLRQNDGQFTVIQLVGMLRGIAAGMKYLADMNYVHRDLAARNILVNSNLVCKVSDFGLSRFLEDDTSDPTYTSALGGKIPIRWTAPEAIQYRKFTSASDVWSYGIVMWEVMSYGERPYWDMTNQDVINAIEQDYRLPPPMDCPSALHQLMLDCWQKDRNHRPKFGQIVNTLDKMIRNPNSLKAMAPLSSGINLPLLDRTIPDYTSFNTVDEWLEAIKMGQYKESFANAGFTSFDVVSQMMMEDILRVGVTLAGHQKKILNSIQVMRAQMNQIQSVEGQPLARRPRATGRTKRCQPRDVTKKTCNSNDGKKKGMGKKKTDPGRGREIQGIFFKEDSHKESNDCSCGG

Sequence | phosphorylation enrichment
EQRRAYLEGTC [HLA-C_Y183_L180R] | 0.528
DSDTDYGSGFP [RNASEH2A_Y206_L202S_YF] | 0.557
LVRPPYSFLAL [FOXI1_Y126_S129L_YF] | 0.523
MMVGAYSSLEG [ECPAS_Y470_T472S] | 0.434
KRAAIYNPVIF [RHO_Y301_S297R_YF] | 0.55
LHAAAYRNALA [UQCRC2_Y182] | 0.491
AALLNYKAGRD [GRIN2A_Y737_V734L] | 0.465
SHPSSYTTHPQ [NIPBL_Y195] | 0.384
LTGIAYSLPHW [SLC22A14_Y291] | 0.94
SLFNGYVFSGM [NEIL3_Y71_V76M_YF] | 0.541
LNEVGYDDIGG [VCP_Y203] | 1.04
PEADKYRLPFA [FGG_Y300_T303P_YF] | 0.645
HSDYQYGQRSQ [PKP2_Y168_S169G] | 0.335
QMQAAYQKVVA [HBD_Y131] | 0.441
VDSAHYQLLET [DTX3L_Y385_K386Q] | 0.616
LRAGVYREKDQ [DNM2_Y626_P627R] | 0.295
LRVHSYKSMQP [DRC7_Y516] | 0.515
RQEEEYKRFSE [SFSWAP_Y133_L136F] | 0.88
RNYDTYTAGLS [RHBDD1_Y264] | 14.6
TVLEPYTDPYY [ZC3H18_Y367_A368T] | 0.541
FGFPGYQCKHF [TIMP3_Y177_S179C_YF] | 0.514
CTLLPYFSARV [DGKE_Y269_YF] | 0.615
VHLFAYDWISI [BEST1_Y227_G222V_YF] | 0.868
KELAKYFKLHH [AK7_Y390_N389K_YF] | 0.459
IGRHAYGDQYR [IDH1_Y135] | 0.406
GLAELYEYKKK [CKAP5_Y1854] | 0.397
NPQKSYFICLF [WAS_Y83_R86C_YF] | 0.523
PTTKTYFPHFG [HBA1_Y43_D48G] | 0.322
AHAGEYGAVAL [HBA1_Y25_E28V] | 0.582

molecular target: FGFR1 (UniProt P11362); assay: as above
Sequence (P11362 whole entry, looked up): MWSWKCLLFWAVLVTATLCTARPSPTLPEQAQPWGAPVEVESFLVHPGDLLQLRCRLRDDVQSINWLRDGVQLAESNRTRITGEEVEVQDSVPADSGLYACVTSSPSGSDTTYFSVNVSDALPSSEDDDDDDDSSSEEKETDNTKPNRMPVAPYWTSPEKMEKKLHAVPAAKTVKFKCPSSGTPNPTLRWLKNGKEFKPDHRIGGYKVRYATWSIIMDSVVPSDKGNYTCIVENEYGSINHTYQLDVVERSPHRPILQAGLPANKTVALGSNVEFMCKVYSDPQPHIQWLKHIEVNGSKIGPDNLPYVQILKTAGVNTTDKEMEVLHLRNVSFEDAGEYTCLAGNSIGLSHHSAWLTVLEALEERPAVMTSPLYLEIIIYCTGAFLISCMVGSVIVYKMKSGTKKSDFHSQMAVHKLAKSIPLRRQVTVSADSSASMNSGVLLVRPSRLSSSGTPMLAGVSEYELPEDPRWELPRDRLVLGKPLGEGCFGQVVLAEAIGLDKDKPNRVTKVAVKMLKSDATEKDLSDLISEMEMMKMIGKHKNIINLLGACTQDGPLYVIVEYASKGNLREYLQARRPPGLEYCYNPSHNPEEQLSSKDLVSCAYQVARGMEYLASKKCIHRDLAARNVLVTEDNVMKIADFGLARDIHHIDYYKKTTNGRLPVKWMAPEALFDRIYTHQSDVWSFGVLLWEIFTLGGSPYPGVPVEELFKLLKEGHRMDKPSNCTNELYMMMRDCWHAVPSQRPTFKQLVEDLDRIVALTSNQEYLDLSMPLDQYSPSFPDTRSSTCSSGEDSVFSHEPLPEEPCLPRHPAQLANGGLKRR

Sequence | phosphorylation enrichment
EQRRAYLEGTC [HLA-C_Y183_L180R] | 0.472
DSDTDYGSGFP [RNASEH2A_Y206_L202S_YF] | 0.418
LVRPPYSFLAL [FOXI1_Y126_S129L_YF] | 1.07
MMVGAYSSLEG [ECPAS_Y470_T472S] | 0.514
KRAAIYNPVIF [RHO_Y301_S297R_YF] | 0.492
LHAAAYRNALA [UQCRC2_Y182] | 0.415
AALLNYKAGRD [GRIN2A_Y737_V734L] | 0.508
SHPSSYTTHPQ [NIPBL_Y195] | 0.459
LTGIAYSLPHW [SLC22A14_Y291] | 0.658
SLFNGYVFSGM [NEIL3_Y71_V76M_YF] | 0.487
LNEVGYDDIGG [VCP_Y203] | 1.07
PEADKYRLPFA [FGG_Y300_T303P_YF] | 0.544
HSDYQYGQRSQ [PKP2_Y168_S169G] | 0.357
QMQAAYQKVVA [HBD_Y131] | 0.419
VDSAHYQLLET [DTX3L_Y385_K386Q] | 1.14
LRAGVYREKDQ [DNM2_Y626_P627R] | 0.335
LRVHSYKSMQP [DRC7_Y516] | 0.479
RQEEEYKRFSE [SFSWAP_Y133_L136F] | 0.712
RNYDTYTAGLS [RHBDD1_Y264] | 0.602
TVLEPYTDPYY [ZC3H18_Y367_A368T] | 1
FGFPGYQCKHF [TIMP3_Y177_S179C_YF] | 0.517
CTLLPYFSARV [DGKE_Y269_YF] | 0.518
VHLFAYDWISI [BEST1_Y227_G222V_YF] | 1.41
KELAKYFKLHH [AK7_Y390_N389K_YF] | 0.456
IGRHAYGDQYR [IDH1_Y135] | 0.398
GLAELYEYKKK [CKAP5_Y1854] | 0.7
NPQKSYFICLF [WAS_Y83_R86C_YF] | 0.632
PTTKTYFPHFG [HBA1_Y43_D48G] | 0.501
AHAGEYGAVAL [HBA1_Y25_E28V] | 0.421
